Experimental data taken from the supplement of paper PMC12636428.

tested on: Saccharomyces cerevisiae; test: transcriptional activation domain activity (GFP:mCherry ratio, weighted mean of sorted bins, harmonized to initial dataset scale) (arbitrary fluorescence ratio units); higher = stronger transcriptional activation; details: beta-estradiol 1 µM; induction time 4 h
In short: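 After a 1:5 dilution into SC with 1 uM beta-estradiol and 4 hours at 30 °C, yeast diploids carrying a GFP reporter and URA3-integrated barcoded tiles were sorted into 8 bins by GFP:mCherry ratio. The tiles were fused to an estradiol-inducible synthetic transcription factor. Barcodes were sequenced, tiles below 50 reads were discarded, and activation activity was taken as the read-weighted mean of bin median fluorescence, averaged across barcodes and linearly mapped onto the initial dataset scale.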

Sequence	transcriptional activation domain activity
SKWEVANKKTRDEASKGGGGKGGGGGKGGKAGEGGKEKRSEKKAAAKEGGKKK	39600
CVFDMPCLWYGVYLVWFGVFSYLLLWCFALGAYYSSTVWSILWLIAAGSWCRQ	73300
LPSFLFSSLYCFSLLFLSFLSFFPFLTLLLLFSLFPSLSLSLFFSLLFSPQRL	63400
LSFRFLDYTSLTHCVDYRNPALAFNILVTCLLFLILRPKPLVLYWCLVCIGFW	44700
MLVLLLLLLLLLLLLFLLLPLLLLLPLLLCLYMPCIVRCSNHEVHILLISGTG	72900
CVGLLCLLDTLHLCFSIHMMYFYLIHNFGNVKAVFDIIWSLKGLGTVQVLLIW	45200
QVCTLLGASGGSSFVRGGSYLQGGYGLNTADLWRRNFLVLVGWILFFWLLQTI	54800
LWHLVYEPILKGIHEHLLLLDEIIEIFGPDVEKELFRRVYYYLSLLCMHSGTH	24600
MLICLFVVFSPFFLFIFLYLSAYRLSFFNFSCFLLFLYLFLIHLLYFPLYFIF	61200
SNDSSDEEDRKSRRKSKKKAKDRDASKERSKKDDKGKKKSRTSKGRSRKDEDS	18600
RTKDEMKCTSCNAPTSRVCARCKHTLYCSSEHQKKHWKQHRQACVPYGAQLVK	50600
MSHSASTSASTSTAAGEPSAKRMRLGTRSCAECRRRKVRCIVPPGARVCEGCS	75900
FFSSFLFFSFLFFSVVLSFLLFFSLLFSSPLFFPFLPFPSLSFPSLPSSPLLF	35200
DRLSLRFTLAISLTDVIRAIAILIYSHFQVDDWRCSLLSFSLYWLTLLYLFLT	25300
LYLSVLYIIVFTFLPGYTFIFTLTYGYGFAARGLSFLALGVGFLSSLILVIPV	46500
TSWKNEDQALVFHLRSRVSAAIMKLECHRDRRIDLLITFREAQRFLLELIGWV	59400
SGSSKPRRAEDGRKSSRRDHSREREGSNGGHHRSRSGRDGSASPKRSSSSRRR	16800
IWVHHVAYVRNCLAQLIFTWLDEYWRPLSDACILPRLRSWVLSRFRDAQLVQG	78700
AKRGQNEALAGAKPERGGAGAKQDARAARGRAQGSGVRGAGRGAAGRGQAQQV	41100
KATEYCLYFFGLGPALFKSLLPDKYWQHYCMLVHAVRILVQRRITQTQMLEAY	49300
LVMAHYLYANACAKGEHLIVTTWDMYYEKWGFMLIFWNMAGVPLSYCHCTLYL	65300

Sequence	transcriptional activation domain activity
MRAVDIPSLAFNAVGVSNHGIQQMPVAEFATVMKSLVTILLKSMPLDKEKRYQ	38900
TPLRISLFLVRVRCRHPSYSKWLPVEIKRCGVLLMSRLSLSLYRIFLNHITLN	59900
SRGICVYPFLPFAFFLGVFFSLMEFVLLGMMMVLYLYMRTVTCMFDISICLLL	48500
MAKSDPHQPGRIRAFKPKVSTGCKTCKIRRVKCDEAKPACKRCSSTGRKCDGY	16300
FFLKVYLLNPLHMTRFADLLYQGAILNRVFQPYESHLQYLLQWMCDYNLYGCA	72900
EEEGDEDVSGSEGSSRRKGRQRNEEEDDRSAGRRSHRLKDKSRSSTRNRRGSD	13600
WFRDMRFPYVPRAFSRLLKNLLVAVYVSLFNSCIFWFTSSRLHPQRRFIARYL	64800
MMPRGSYLAFFLLLLFYSFLSLFTPLNFVFLFFLSPLLRLHTLFYLLYFFGLA	42100
FRFQQCMTRAMTLIKMYFVGSLRALSLDVFKRLSEKDVSPTAQMHLLYTRFKT	56200
MGSFLPFLFFSFCYTFVCYFFSIIALVVFVYFTLAVEFFFFFFGCLRCLLLWL	57600
FWFPNYIFGALSFFSWMSWIAPTNINLANITGSSTGLGLNPFSSFDWNVWTFN	51400
MNYLELSLVILTCLWDILLVVTFCSYRRIFRRVNMVNIMTISLLKHLSVFCLF	52300
LIHLMNIAQVVILFVHRFIFGVIPLFEIKTCSFWPLLVSLWHLNYIIIYSIMF	51600
HKEASDKENTGSGQAQKNNKVKANTGARVKDEQEAKKKVGRPKKGTEAGTGAG	39500
DANDGRRTLLVVLGDHGMTAAGNHGGASAGETSAALVLASPLFSTVASAPARR	< 6570
MMRRWNELGLDGWVQNQHGLDSFAFLQLAFRLPICCIFPSKILVVFPLLLLSA	52900
VDDSDDDGDEEGGKNEESITKKGVRLLDYACGTGLVSRVSHIPSIAGASSRSL	46600
ALKALSFARLLVIAVLMDSFLFVFTSAILVIGIGTSFNQIACQVGIWWCIFLY	58400
LLLVHGRWSYQRVADMHSNFFYKNVIWTFALFWYLPFNSFDATYLYQYTFILL	47600
RDKDDRRRHRDRDDQSSRSHRHHRHRDGDSDRDGDGHRHKRSRHSKAEEAKPS	28800
LRDLERSFDLLRFTWVPSIACWILPLLTRPDFSTLLSVLGETIQRFSSNFVIM	73700

Sequence	transcriptional activation domain activity
MSYLQMFTLIEGKFQKQMLFLFFFLLCNLLSFFYIYIYVLLTLIFFTTTSIHL	56700
RAAVSAPVVPTKAAVAPEEPPVKRKRGRPRLTSPRYRPKAAPAKAPAPTPKVV	50000
RSLLWQLSVWSFIKLMILMLFGYRMEAISILGREVMLPRGLIGLGYDSIDHCG	47800
AYANDKESTREKFILVVWIGPQCKVMRKAKVSVHAADVKTTLRVYSIEVAARE	35700
TYPVSMPFDGTLNLDLDMCFLDVTNTDINFSDIFDPNFQFGSYGFPLSLDYDI	139000
APSSSAAADGLTSPKPTGTRAALRSILREEGAAGLLRGLSPRVAKVAPACGMM	42700
EAWILHMVVILGVNYLFTFYVWDFSYTDTELWNVTCYWKLGWLLPIPYTLICF	51000
ESSGGESEDDYVQEKRSSKPKRRGSRRGDEEEGGGGRKRAAQKKRKRKQPEEV	34800
KSWGKSLVGLMGRLKRQPICVLVKTDEINHLLHMILYVRENEETSCIKIVHFC	37900
EEVKPVMAAETKPEEKKASEEAKPEEKSAETSTDKSSGVNRNAVAAAASAATS	32400
MTNRQRVGHKKSRHGCIRCKARRVKCDEQRPCSNCVRHRTPCSLSQEPLAAAL	45200
VKGGGDSRKVKGAESGQSGSGSGKQSGSRRRAVSSSRTRGSKEPDASIKSNGT	35100
LLRSRAYDDPAVFRIISALFQVPMRHKKNSVRGLLCVVWRVITWVYFQPRLPW	54600
PKDSEPEGADKLKPMQEVYGAVRNTGIGTEVDNRDNMIRGRWRKLLHARLAHL	43500
PTTTTTPSSPSTTCRSPTRRRAPRRRSACTGSRTRRGSPQSRRRCCRRTTSTT	28900
APKDESEAPKPAEEDSPSKRKKAEEVKIEKKEETPARPEPQHTQPKQPAAKAK	10100
LFRDDEFWGIFASDVGLLVMMGWYGFKTLLWTYILPLMWVNHWIVMITYLHHT	55100
FRMVLLVYQVAWAVHVYRTRNIALAYLNNYARMMYAIRSYNYQCLFHQIDLEG	57100
RHAIVVKRVIRMSGKGKMSRMSALVVVGDGKGMVGFGEAKDPNAGKAGRKAFQ	32800
MFIFLFFIHLLSHLCFILILILLFSILLFYVPVICLSTFFILFYHHHLLCTHQ	32200
MSSHDGYRTRRTPQACVACRRRKTKCDGARPRCRHCASRHRQCVWPDVAEGAS	39900

Sequence	transcriptional activation domain activity
EQDAFFPWLWIDPQFPEDPVLGSWDTFLGDFNCGMPLDDLDFALDMLQYSVGA	161000
TLWLLLLCLRCSTSVLALLTLLSCSSFPPFLGFHLSRALWPVLRCPLPSMLCS	59400
WSILYLLCEVYARLLLTLSDDEFLSHAGNPLSLKQVIELTRQLKNLSFVLFWR	70700
NLLARRPFFVFWFMGQIHRSLTLFHCDPTLLVALDVCKSLIPAINYLTLLWPC	70900
SAFGGGGGASAFGSGTSAFGSGANTGSAFGGTASTPSTASAFGGGSAFGGAGS	32700
GYVYVSGFLALVIVVSTYFYMLSRLVLLVLPFLYLRSLSPAAYHVVHWTSFIP	61000
DVPEEKKAESEKVDSDQEKAESEAKKIDETPAKETADKPEEKSEDKAEDKAAE	26100
EYAPKTPVVAAAVPKEEKKEEKAEEVKEAKEEENKEIKDEKKDTRKSRSASRK	< 6570
AVPAEGAKPEETPAAAPAETTEAAKTEESKPEAPAASEPAKTEPAAPAAAPAA	< 6570
IKIIQLLGTRYLYFMIKELRGALLRGYQMHVLGYTVHAILASIDLNPACLKAC	77200
MGIRYHWLVFFCPFFSFTFASCFVLFVGMLFCFIILDYGCFSFLPLWFFFCPE	18700
LQRPVRIMVDTKHSTVKTLVQEFVRIRPQRDHLRLAMLVLLCRDYFHKRVIVF	49000
FSDGELSDDALDKQGKKEKKRKAKAIESGDATPVESKPEKERKKKKSKPEAET	31100
VPLPELEPKVVLELRAVVVQVKQLDEEPPLDLEQRVELVPTGQLEQRAAPVLR	35000
LVMWTVILCPVFSFPDRGHGSMLFFLFKLCLAMLLTYLLAMLWFHCVYCIVVF	32700
MAKCIVTQTFLAASKTKTGYTIHQIRYTMTFWEIYENLLAIYLLIHPQWHLSF	40200
MCLCLLLLLLLHVFIFFMSFYPSGWPPSYSIIFFLWSFILVVFYPCKFFFLVV	70400
MFCLRSWLPLLFIPTNAPPVFVFLFFACTFFLSRPCVYCSFLLLILFFTSCYW	52700
KQYCVRPNSGRIEPGKSVEVTVLLQAMKAEPPMDAKCRDKFLVQSVAVTADKE	33600
MLQVVVQCFGISLLYFRSGVYLCIFTVHGLGYLFCVFCVFGFHSVWVGLCFFV	56600
